From doi:10.1101/2025.09.12.675771 (bioRxiv, 2025)

Assays:
[1] = molecular target: SARS-CoV-2 RBD (residues 332-527), Lambda variant (SARS-CoV-2, Lambda (C.37), L452Q | F490S)
[2] = molecular target: SARS-CoV-2 RBD (residues 332-527), BQ.1.1 variant (SARS-CoV-2, Omicron BQ.1.1, R346T | K444T | N460K)

B1: R1-32-Q61E-WT (antibody, V domains shown)
VH: EVQLVQSGAEVKKPGSSVKVSCKASGGTFSSYFISWVRQAPGQGLEWMGGIIPILGIADYAEKFQGRVTITADKSTSTAYMELSSLRSEDTAVYYCARENGYSGYGAAYNFDLWGRGTLVTVSS
VL: QSVLTQPPSVSGAPGQRVTISCTGSDSNIGAGYDVHWYQQLPGTAPKLLIYGNSNRPSGVPDRFSGSKSGTSASLAITGLQAEDEADYYCQSYDSSLSGSVFGGGTKLTVL
- binding result [1]: binds
- binding result [2]: binds
